The results in this text go back to patent publication US20080280833A1, “Therapeutic Peptides Derived from Urokinase Plasminogen Activator Receptor” (priority 2005, published 2008).

This assay has as its target purified human αvβ3 integrin (Chemicon) (human) (UniProt P06756). As to the kind of experiment: cell-free pull-down: 125I-suPAR + αvβ3 + uPA + D2A (5 µg), immunoprecipitation with LM609, densitometry.

purified human αvβ3 integrin (Chemicon) (human), sequence (P06756 31-1048, form in doubt, chain 1 of 2): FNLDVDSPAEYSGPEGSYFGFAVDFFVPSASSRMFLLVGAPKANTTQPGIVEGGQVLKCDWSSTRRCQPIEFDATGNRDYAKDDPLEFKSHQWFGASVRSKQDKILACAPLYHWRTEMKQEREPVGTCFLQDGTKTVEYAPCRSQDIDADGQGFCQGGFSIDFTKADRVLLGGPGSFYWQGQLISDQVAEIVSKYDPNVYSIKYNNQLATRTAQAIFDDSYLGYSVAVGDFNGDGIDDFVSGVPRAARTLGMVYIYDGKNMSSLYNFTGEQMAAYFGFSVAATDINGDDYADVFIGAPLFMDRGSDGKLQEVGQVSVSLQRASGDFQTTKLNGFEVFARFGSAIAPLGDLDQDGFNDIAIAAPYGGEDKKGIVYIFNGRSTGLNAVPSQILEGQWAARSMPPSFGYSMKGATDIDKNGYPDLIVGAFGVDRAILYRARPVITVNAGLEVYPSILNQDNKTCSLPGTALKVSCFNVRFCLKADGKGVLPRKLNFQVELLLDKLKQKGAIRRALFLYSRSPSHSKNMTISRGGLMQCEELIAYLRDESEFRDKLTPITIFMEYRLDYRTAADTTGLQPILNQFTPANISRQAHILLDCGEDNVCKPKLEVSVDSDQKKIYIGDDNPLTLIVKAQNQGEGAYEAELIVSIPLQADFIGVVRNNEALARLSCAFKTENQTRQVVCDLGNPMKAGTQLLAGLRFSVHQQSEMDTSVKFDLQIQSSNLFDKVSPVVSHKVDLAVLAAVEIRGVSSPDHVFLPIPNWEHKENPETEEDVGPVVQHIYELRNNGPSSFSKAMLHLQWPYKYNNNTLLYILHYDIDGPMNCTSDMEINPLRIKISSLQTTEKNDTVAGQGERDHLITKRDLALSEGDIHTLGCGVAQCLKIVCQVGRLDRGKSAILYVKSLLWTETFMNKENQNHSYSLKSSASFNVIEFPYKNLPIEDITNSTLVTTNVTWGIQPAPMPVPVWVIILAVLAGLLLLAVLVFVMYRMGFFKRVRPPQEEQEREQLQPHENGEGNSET
purified human αvβ3 integrin (Chemicon) (human), sequence (P05106 27-788, form in doubt, chain 2 of 2, further chain): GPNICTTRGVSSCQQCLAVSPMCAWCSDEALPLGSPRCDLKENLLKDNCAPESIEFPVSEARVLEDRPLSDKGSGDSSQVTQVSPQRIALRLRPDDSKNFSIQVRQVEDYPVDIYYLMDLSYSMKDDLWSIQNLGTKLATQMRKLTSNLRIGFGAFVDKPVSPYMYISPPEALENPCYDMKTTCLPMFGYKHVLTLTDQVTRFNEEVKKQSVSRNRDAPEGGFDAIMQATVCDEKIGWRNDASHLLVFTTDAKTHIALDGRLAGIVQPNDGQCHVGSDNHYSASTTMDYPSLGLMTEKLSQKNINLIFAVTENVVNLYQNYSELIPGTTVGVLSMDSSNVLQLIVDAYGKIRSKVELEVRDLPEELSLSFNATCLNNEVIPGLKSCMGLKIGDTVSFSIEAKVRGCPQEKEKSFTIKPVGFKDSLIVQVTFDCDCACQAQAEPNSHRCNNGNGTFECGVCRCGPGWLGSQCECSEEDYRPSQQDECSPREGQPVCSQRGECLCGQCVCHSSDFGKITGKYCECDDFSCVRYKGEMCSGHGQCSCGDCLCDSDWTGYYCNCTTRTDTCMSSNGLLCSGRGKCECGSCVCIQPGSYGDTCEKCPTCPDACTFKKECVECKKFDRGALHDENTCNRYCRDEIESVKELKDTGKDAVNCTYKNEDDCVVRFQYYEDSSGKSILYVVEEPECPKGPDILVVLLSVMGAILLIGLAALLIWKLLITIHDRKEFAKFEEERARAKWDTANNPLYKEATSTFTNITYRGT

Take “peptide D2A, synthetic peptide of domain 2 of human uPAR (aa130-142)”: the percent reduction of coimmunoprecipitated suPAR compared to uPA alone came to 50%.
